In publication PMC3944234:

Molecular target: GAL4-Nef (HIV-1 Nef fused to the GAL4 DNA-binding domain) (HIV-1)
Test: two-hybrid

With “VP16-eEF1A (eEF1A fused to the VP16 activation domain) (from UniProt P68104 1-462) (natural protein)” the relative luciferase expression was 1850 r.l.u.
